Experiment [1] addresses T1, soluble CD23 antigen (soluble and monomeric form) (UniProt P06734 150-321).
T1 chain: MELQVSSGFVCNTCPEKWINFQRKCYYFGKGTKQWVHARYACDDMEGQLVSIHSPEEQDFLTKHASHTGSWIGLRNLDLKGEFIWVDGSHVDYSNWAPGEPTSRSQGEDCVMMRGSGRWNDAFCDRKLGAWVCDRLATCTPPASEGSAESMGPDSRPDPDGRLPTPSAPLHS
Briefly: FRET competition.

Experiment [2] concerns the target T1, soluble CD23 antigen (soluble and …). Briefly: DELFIA.
For experiment [3] the target is unchanged. Briefly: Biacore. (In general: In SPR one partner is held on a chip, and binding of the other changes the refractive index at the surface.)
The target in experiment [4] is IEH-241. The experiment is described as follows: Biacore.
In experiment [5] the target is IEH-250. Briefly: Biacore.
Experiment [6] addresses IEH-248. The experiment is described as follows: Biacore.
The target in experiment [7] is IEH-243. The experiment is described as follows: Biacore.
In experiment [8] the target is IEH-245. Briefly: Biacore.
Experiment [9] addresses IEH-251. Briefly: Biacore.
The target of experiment [10] is IEH-241. The experiment is described as follows: DELFIA.
Experiment [11] concerns the target IEH-239. Briefly: DELFIA.
Experiment [12] concerns the target IEH-250. The experiment is described as follows: DELFIA.
In experiment [13] the target is IEH-248. The experiment is described as follows: DELFIA.
In experiment [14] the target is IEH-243. The experiment is described as follows: DELFIA.
The target in experiment [15] is IEH-245. Briefly: DELFIA.
For experiment [16], the target named is IEH-251. The experiment is described as follows: DELFIA.

B1: stabilized p5E8 pIEH252 scFv (scFv)
scFv: DIQMTQSPSSLSASVGDRVTITCRASQDIRYYLNWYQQKPGKAPKLLIYSASSLQSGVPSRFSGSGSGTEFTLTVSSLQPEDAATYYCLQVYSTPRTFGQGTKVEIKGGGGSGGGGSGGGGSEVQLVQSGGGLAKPGGSLRLSCAASGFRFTFSNYYMDWVRQAPGQGLEWVGRISSSGDPTWYADSVKGRFTISRDNAKNTLFLQMNSLRAEDTAVYYCASLTTGSDSWGQGVLVTVSS
On to B1, for which the 50% inhibitory concentration (IC50) (as a rule, the concentration needed to halve the response being measured) in experiment [1] stood at 0.052 µg/mL. For the same molecule, the Kd – broadly, a measure of binding affinity in units of concentration – was 1.2 nM in experiment [2] and 0.8 nM in [3].

B2: stabilized p5E8 pIEH246 scFv (scFv)
scFv: DIQMTQSPSSLSASVGDRVTITCRASQDIRYYLNWYQQKPGKAPKLLIYSASSLQSGVPSRFSGSGSGTEFTLTVSSLQPEDAATYYCLQVYSTPRTFGQGTKVEIKGGGGSGGGGSGGGGSEVQLVQSGGGLAKPGGSLRLSCAASGFRFTFNNYYMDWVRQAPGQGLEWVGRISSSGDHTWYADSVKGRFTISRENAKNTLFLQMNSLRAEDTAVYYCASLTTGSDSWGQGVLVTVSS
B2 had an IC50 in [1] of 0.061 µg/mL. The results for the dissociation constant (Kd) in [2] and in [3] were 1 nM and 0.9 nM, respectively.

B3: CD23 (receptor)
chain: MELQVSSGFVCNTCPEKWINFQRKCYYFGKGTKQWVHARYACDDMEGQLVSIHSPEEQDFLTKHASHTGSWIGLRNLDLKGEFIWVDGSHVDYSNWAPGEPTSRSQGEDCVMMRGSGRWNDAFCDRKLGAWVCDRLATCTPPASEGSAESMGPDSRPDPDGRLPTPSAPLHS
Take B3: the Kd is 4.6 nM in experiment [4]; 4.3 nM in experiment [5]; 1.3 nM in [6]; 2.8 nM in [7]; 1.1 nM in experiment [8]; 3.2 nM in experiment [9]. The Kd in experiment [10] came out at 1.2 nM; in experiment [11], 3 nM; in experiment [12] it was 2.6 nM; in experiment [13] it was 2.4 nM; in [14], 1.2 nM; in experiment [15] it was 1 nM. Besides, the Kd in experiment [16] worked out at 1.5 nM.
